Values quoted from earlier work in publication PMC6281825.

Molecular target: Complement C5 (Homo sapiens) (UniProt P01031)

eculizumab
Kd: 0.1 nM
